Experimental data taken from paper PMC7064531 (2020).
Where no end group is shown, it is not given here. [ ]: non-standard residue; d: D form. pY = N[C@@H](Cc1ccc(OP(=O)(O)O)cc1)C(=O)O

What was measured:
[1] = biological target: T1, E6AP AZUL (amino-terminal zinc-binding domain of ubiquitin E3a ligase), amino acids 24 to 87 (human, UniProt Q05086 24-87); experiment: ITC; Y326 phosphorylated
T1 chain: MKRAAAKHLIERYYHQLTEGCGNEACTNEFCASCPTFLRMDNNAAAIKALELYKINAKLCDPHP

[2] = biological target: T1, E6AP AZUL (amino-terminal zinc-binding …); experiment: ITC; Y326 phosphorylated
[3] = biological target: T1, E6AP AZUL (amino-terminal zinc-binding …); experiment: SPR
[4] = biological target: T1, E6AP AZUL (amino-terminal zinc-binding …); experiment: ITC
[5] = biological target: T1, E6AP AZUL (amino-terminal zinc-binding …); experiment: ITC

B1: hRpn10^322–366 peptide with Y326 phosphorylated (peptide)
chain: EEDD[pY]DVMQDPEFLQSVLENLPGVDPNNEAIRNAMGSLASQATKD
modifications: not fully specified
[1]
  Kd: 0.189 µM
[2]
  Kd: 0.189 µM

B2: GST-hRpn10^305–377 (domain or fragment)
chain: SADIDASSAMDTSEPAKEEDDYDVMQDPEFLQSVLENLPGVDPNNEAIRNAMGSLASQATKDGKKDKKEEDKK
[3]
  koff: 0.0211 s⁻¹

B3: hRpn10^322–366 peptide (peptide)
chain: EEDDYDVMQDPEFLQSVLENLPGVDPNNEAIRNAMGSLASQATKD
[4]
  Kd: 0.0182 µM
[5]
  Kd: 0.0182 µM
